This note sets out measurements from the supplement of paper PMC12042874.

The data set can be described thus: amyloid nucleation score (Sup35N fusion, yeast selection) (log enrichment); library NNK2; higher = more nucleation; inactive = no reads after selection. In a few lines:
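Libraries of peptides of 20 random codons fused to Sup35N were expressed in psi-negative yeast and induced 24 hours with 100 μM copper sulfate. Selection was 7 days at 30°C on medium lacking adenine and uracil, and plasmid inserts were Illumina-sequenced before and after selection. Nucleation score is the DiMSum log enrichment of output over input reads, centred on the mode score of non-aggregating sequences, and sequences with under 100 input reads were left out.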

± gives the uncertainty stated by the source.

Substance SASFRGG gave an amyloid nucleation score of -0.935 ± 0.48.
In turn, IRQPSVKQPWTVAKTFH gave an amyloid nucleation score of 0.052 ± 0.5.
The substance VYSRDFRIQ showed an amyloid nucleation score of -1.1 ± 0.54.
FHPVFGMFWRTSNERSGLFQ returned an amyloid nucleation score of -1.03 ± 0.48.
Substance RLSENFLRWSDVTIQSRLFG showed an amyloid nucleation score of 2.49 ± 0.15.
SSYRINPRKPLR returned an amyloid nucleation score of 0.028 ± 0.63.
For the substance YYFWSTFGSYNYLIFCYSIL, the amyloid nucleation score is -0.656 ± 1.1.
The substance YLKDPTFMGVNAFCVVLHFV came in with an amyloid nucleation score of 6.01 ± 0.077.
As for DYQGGCSILTSEDEPYEVAC, the figure is 1.56 ± 0.44; as for DYSFGMSCLEDIFREHEILG, -0.879 ± 1.1; as for LVRHFIHGSTA, -1.23 ± 0.49.
The value for AKHERSIMVDVMSGRCSTLS was 1.07 ± 0.24; that for NRVFVVND was 1.4 ± 0.2.
On to SILGMG, for which the amyloid nucleation score is -0.555 ± 0.28.
The value for TVVVYIRYRTPMRMVTPPSQ was 0.986 ± 0.21; that for CTCLWNDMRRGP was 1.99 ± 0.25; that for SVSYTNVLYHIKVDEFFNEC was 1.3 ± 0.25.
As for PAFVYHFYQYNLTICYGYLG, the figure is -0.313 ± 0.5; as for HSVFNSMRRENLVNNNTLNG, “inactive”; as for KGPDITEHTITRGPEGNSRY, -0.17 ± 0.65.
As to YTIIKWPL, the amyloid nucleation score was -0.21 ± 0.79.
The substance CFISQILEFCCSFIFSRDFF registered an amyloid nucleation score of 0.286 ± 0.27.
As to RLLNTAVLVANESNQNARDR, the amyloid nucleation score was -0.245 ± 0.29.
As to ECYETRTSMEY, the amyloid nucleation score was -0.102 ± 0.56.
Regarding GNCCDDCP, the amyloid nucleation score is 1.53 ± 0.24.
For ITCVVLPLSRWDVHFKCSCH, the amyloid nucleation score is 0.096 ± 0.31.
In turn, MEKVHV returned an amyloid nucleation score of 1.65 ± 0.48.
As for GFKVF, the figure is -0.937 ± 0.31; as for NYTWGEIYGH, -1.2 ± 0.79; as for DFGVWFFFYTHQLSA, -0.113 ± 1.1.
CLSRHAHRRRGMVYAGDYRA came in with an amyloid nucleation score of -0.256 ± 0.49.
Regarding PNPRPVSICNRLYPF, the amyloid nucleation score is -0.246 ± 0.38.
In the case of YISMSMLGCLRTLREVHRDR, the amyloid nucleation score came to 3.21 ± 0.11.
The value for FKHLLSMVIVECFIVIVILC was -0.041 ± 0.5; that for AFGRTTKKDVCLFGYPKQVE was -0.235 ± 0.46.
The value for YCMSYCRSTCYHQEFHGPAC was 4.34 ± 0.072; that for ACKVYKLAMNIVLGGTGWSD was 4.8 ± 0.077; that for DIYPRLLEDVFYPFVQPHLF was -0.505 ± 1.1.
As for GQGKRNVSLSNGGDKFNLDV, the figure is 4.98 ± 0.1.
The substance YANMVRERINWI came in with an amyloid nucleation score of 0.198 ± 0.28.
In turn, IFCAGYDNPRFINLLLLPKG had an amyloid nucleation score of 3.05 ± 0.1.
LKYVVTVHIMFMLSSWSQGC registered an amyloid nucleation score of -0.814 ± 0.79.
Take NYGGPMVNDAFVCTLAGPV: the amyloid nucleation score result was “inactive”.
WQIGCLADIYSYLPDGNTVG had an amyloid nucleation score of -0.389 ± 0.4.
As for NPRTQF, the figure is -0.108 ± 0.28; as for GFLFRFETRKTHRSCLSWIG, 1.71 ± 0.13; as for AALHNYAVSFCFMSPMKQKT, -0.542 ± 0.76.
YFSYVMSVAATAMLGLVVVR yielded an amyloid nucleation score of 0.189 ± 0.3.
Substance VSLLWYHFGWLLDCFWYRWS came in with an amyloid nucleation score of 0.429 ± 0.8.
The value for NLSRV was -0.741 ± 0.34.
As for RLLLCLRLSY, the amyloid nucleation score is 2.7 ± 0.12.
Turning to ENQPVELSTTRDTRAGMSDT, the amyloid nucleation score result is “inactive”.
As to SVYAGVLM, the amyloid nucleation score was -0.555 ± 0.63.
In turn, MIQEVLWLVSS showed an amyloid nucleation score of 0.043 ± 0.49.
The value for VVSINVQVDHVCYAFSQVSQ was 8.211 ± 0.062.
The substance MNFWILFQNLQHRCVQVTGR registered an amyloid nucleation score of 3.64 ± 0.068.
For the substance RMYLRSIVKSLMAWQRLGRI, the amyloid nucleation score was -0.545 ± 0.55.
Turning to SCDVMIRYLSLGTLSYVRAV, the amyloid nucleation score is -0.032 ± 1.1.
For WISTTYASLDNPSHKGIVLM, the amyloid nucleation score is -0.302 ± 0.48.
SLGNVHRLL returned an amyloid nucleation score of -0.246 ± 0.79.
As for EPFSNEWWLMGVRPHLICRV, the figure is 0 ± 0.37; as for MISRCDWFWSKLKTSL, 2.29 ± 0.06.
In the case of YVLFFHGIMSCTPMQYQYMG, the amyloid nucleation score entry was “inactive”.
As for CGVVSLCSGWSLMYDRGWWG, the figure is 10.2 ± 0.054; as for YVTCCSGVGVMLFRCANLNC, 5.37 ± 0.082.
As for HAKPDNLLFLTNGEPRTIIR, the figure is -2.15 ± 1.1; as for TCEYVVN, -0.659 ± 0.54.
Regarding PLWCSAGALLYWYKYPWFWL, the amyloid nucleation score is -0.332 ± 0.63.
As to THVDFLWIVNLGGSHI, the amyloid nucleation score is 7.519 ± 0.041.
The value for DYDGTPGCVEKSTIIFMV was “inactive”.
ISFLSNR returned an amyloid nucleation score of 1.58 ± 0.27.
As for AVHDGFDRNMAIKGTGGRWW, the amyloid nucleation score was 3.79 ± 0.098.
For the substance RLKELRQDIPVMPNRQL, the amyloid nucleation score was 1.51 ± 0.3.
Substance YFHVVFL returned an amyloid nucleation score of 2.75 ± 0.094.
VNWVGLSLKIRGYFTVSTWR showed an amyloid nucleation score of -0.141 ± 0.54.
The substance NINMWSLCRFLWDAFARR came in with an amyloid nucleation score of 0.378 ± 0.26.
The substance RFLSYTSCLEMIVFCGRVQG yielded an amyloid nucleation score of 0.207 ± 0.23.
As for CFNSTDN, the amyloid nucleation score entry was “inactive”.
On to SCQLQDKLMLS, for which the amyloid nucleation score is 0.999 ± 0.16.
TWVVRVGFMLAYLKQR had an amyloid nucleation score of 2.63 ± 0.093.
TMCMPAHMPYQHVSYLDILT: the amyloid nucleation score is -0.161 ± 1.1.
As to CVIGCSGWKRIFIISILYRV, the amyloid nucleation score was -0.562 ± 1.
The substance KPHGGGSRLGCRGKWLTILL came in with an amyloid nucleation score of 1.29 ± 0.32.
In the case of MEGVAK, the amyloid nucleation score amounted to 0.331 ± 0.8.
In the case of VADHVCFVCRHTLDP, the amyloid nucleation score is -0.317 ± 0.62.
With FRNENC, the amyloid nucleation score result is “inactive”.
As for FVLCYTTGFLVTFLLEWFFS, the figure is 0.228 ± 1; as for TGAIRGGSVQRVHSLINPRM, -0.414 ± 0.55.
Regarding VGSSHQSLEATKWGVVVLCR, the amyloid nucleation score is 6.569 ± 0.049.
For the substance FSSILWRFSRLVVRSLVPKS, the amyloid nucleation score was determined as 0.175 ± 0.27.
With IMHSLLRSGN, the amyloid nucleation score result is “inactive”.
As for GVAELNLN, the amyloid nucleation score entry was “inactive”.
The substance ETVDSESFSGCGIVFLRGSN yielded an amyloid nucleation score of -0.908 ± 0.78.
DLYNCMHWQHVEYIMLLHGL showed an amyloid nucleation score of -0.846 ± 0.35.
MMNCNVLMDKSSCFRYIVWG: the amyloid nucleation score amounted to 3.77 ± 0.051.
As for VVSKVLNKYF, the amyloid nucleation score turned out to be 0.189 ± 0.65.
The value for DACWFMIGHIGFC was “inactive”; that for VPRFPA was “inactive”.
With KLIYSSYVGSFLMELRWVCD, the amyloid nucleation score came to 1.74 ± 0.17.
In the case of IYWSLMDWLEV, the amyloid nucleation score is 1.22 ± 0.44.
The value for NASYRCNM was “inactive”.
On to GTPVSLNFVLESRTRYQMGA, for which the amyloid nucleation score result was “inactive”.
DVRRLLFLLLGQ: the amyloid nucleation score is -0.796 ± 0.4.
Substance SAKSNGVQ returned an amyloid nucleation score of 1.16 ± 0.32.
As for HSQRNP, the amyloid nucleation score result is “inactive”.
The substance WKMWRVKAVNR displayed an amyloid nucleation score of 0.935 ± 0.35.
CSMFSKLMVNSGLSSVLTVM came in with an amyloid nucleation score of 0.047 ± 0.28.
Substance LCSVWEVFLYFF showed an amyloid nucleation score of 1.84 ± 0.11.
As for FTILRDFC, the figure is 0.152 ± 0.77; as for LVLPYSGTHAGLRVWCGSSV, 0.696 ± 0.34; as for ALLQICCSFIIYHTLLPAPA, 6.11 ± 0.064.
The value for DRRWHRALQN was 0.137 ± 0.37.
The value for ARLLSG was 0.626 ± 0.5.
DREFLGDCWVLAELSKTRLI had an amyloid nucleation score of 3.24 ± 0.093.
Consider RTDMALALQ, for which the amyloid nucleation score was 0.973 ± 0.34.
Substance LWAYPLSMLWGKLFMDGMLL registered an amyloid nucleation score of -0.486 ± 0.27.
In the case of VIGRYIDYC, the amyloid nucleation score is -0.13 ± 0.27.
The value for SFFWPPHLKRVLFLQLRTIC was 0.777 ± 0.44; that for ALILECRVRSRS was 4.16 ± 0.12; that for VWGRMLRVGFGEV was 0.066 ± 0.63.
As to VVELKELAYQGNGIVLIMED, the amyloid nucleation score is -0.066 ± 0.41.
The value for GLDCR was 0.024 ± 0.44.
YRRRSKHAVNKGRMCA gave an amyloid nucleation score of 1.3 ± 0.28.
The value for MVAYFPMSPG was -0.076 ± 0.24; that for PTCGNSPMVRWCSAETFVWG was 3.04 ± 0.13.
For FVLFENSGLFMGLDICMLCQ, the amyloid nucleation score is 1.01 ± 0.32.
In the case of VVFCGVFLCDCDNGESSSRY, the amyloid nucleation score was 8.989 ± 0.071.
The value for KIINNSANGNIYVVNRVLTL was 8.174 ± 0.046; that for YRRLRTNLLWRQSRSY was 0.817 ± 0.54; that for GGLTIAKFCESMVLLRFSRT was 0.399 ± 0.32.
For the substance WSYRTESIHLYYLRPIFKIV, the amyloid nucleation score was -1.11 ± 0.54.
As for GFIGNCYSFASLFGPMSHYV, the figure is -0.588 ± 1.1.
With KNIPFRMYWS, the amyloid nucleation score is 2.6 ± 0.075.
In turn, LLHIFLYGLSLILWWSHRTR registered an amyloid nucleation score of 7.06 ± 0.079.
NVYSAYNLACFALLYCLLIW gave an amyloid nucleation score of 0.691 ± 0.8.
Regarding FRSFRRIILSFYEVNFGSII, the amyloid nucleation score result is “inactive”.
As to FLSGVFIMRFHLNY, the amyloid nucleation score result is “inactive”.
As for LYQWSGLIKSVLNSGCGKVE, the figure is 0.315 ± 0.54.
On to GLSGKCLYFISVWYTKFLIS, for which the amyloid nucleation score entry was “inactive”.
For SIFSIFWYV, the amyloid nucleation score is -0.744 ± 0.5.
As for MVLEGHKCYGLRNGPNNARI, the figure is 0.451 ± 0.49; as for DFVHVEIDPYQVGGGFQ, 8.764 ± 0.046.
